Data reported in PMC10121901.

Columns and labels:
[1] = molecular target: CA-A14C E45C (disulfide-crosslinked CA tubes; also assembled into cones with IP6) (HIV-1); assay: negative-stain EM of NuPODs mixed with CA assemblies
[2] = molecular target: CA-N21C A22C (CA spheres) (HIV-1); assay: as above
[3] = molecular target: CA-N21C A22C (CA spheres) (HIV-1); assay: co-sedimentation

Substance | percent of NuPODs bound to CA spheres and CA tubes at the same time [1] | percent of NuPODs bound to CA spheres and CA tubes at the same time [2] | fold preference for binding to spheres over tubes (NuPODs in excess) [2] | percent of NuPODs in the supernatant (with the CA spheres) [3]
Nup358^(RBD4-CycH, aa 2911–3225) (from UniProt P49792 2911-3224) (domain or fragment) | 20 to 50% | 20 to 50% | – | –
MBP-Nup153^(CTD, aa 896–1475) (from UniProt P49790 896-1475) (domain or fragment) | – | – | 60 fold | 95%
